The numbers were not newly measured in paper PMC3113340, which cites them from elsewhere.

In the series the target is IL-1ra (Homo sapiens) (UniProt P18510).
Chain of UniProt P18510 (P18510 26-177): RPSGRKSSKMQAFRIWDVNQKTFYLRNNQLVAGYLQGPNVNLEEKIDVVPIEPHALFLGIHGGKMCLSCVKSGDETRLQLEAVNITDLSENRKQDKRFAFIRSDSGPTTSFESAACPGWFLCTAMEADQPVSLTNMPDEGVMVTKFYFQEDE

For “soluble IL-1RI ECD (from UniProt P14778)”, the Kd was 0.014 nM.
